The text below walks through data of patent US20080267971A1 (published 2008).

Assay [1] has as its target T1, human Angiopoietin-2 (human, UniProt O15123 19-496).
T1 construct: Mostly bought recombinant protein (R&D Systems 623-AM/CF, 623-AN; biotinylated BT623) or supernatant of transfected 293F cells; also called Ang-2; rhAng-2
T1 sequence: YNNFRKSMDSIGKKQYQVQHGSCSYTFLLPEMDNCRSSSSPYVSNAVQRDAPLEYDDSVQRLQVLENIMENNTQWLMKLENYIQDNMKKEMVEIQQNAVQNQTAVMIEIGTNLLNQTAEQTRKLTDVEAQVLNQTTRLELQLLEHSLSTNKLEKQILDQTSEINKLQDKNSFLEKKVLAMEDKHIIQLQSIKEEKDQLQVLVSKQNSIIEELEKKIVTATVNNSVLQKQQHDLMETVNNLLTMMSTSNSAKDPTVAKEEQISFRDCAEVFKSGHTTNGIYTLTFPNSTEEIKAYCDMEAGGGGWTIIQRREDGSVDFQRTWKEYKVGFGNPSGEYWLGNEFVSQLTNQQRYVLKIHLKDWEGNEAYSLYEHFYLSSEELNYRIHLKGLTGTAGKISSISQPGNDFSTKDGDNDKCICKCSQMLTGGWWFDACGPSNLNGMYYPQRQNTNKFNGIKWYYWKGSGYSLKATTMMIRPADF
The assay is described as follows: competition ELISA: biotin-Ang-2 on coated Tie2/Fc. The procedure: 96-well Nunc Immplates™ were coated with 100 μl of recombinant human Tie2/Fc fusion protein (R&D Systems, Inc., Cat. No. 313-TI-100) at 4 μg/ml by incubating overnight at 4° C. The plates were washed four times using Phosphate Buffer Saline (PBS) with a Skan™ Washer 300 station (SKATRON). The wells were blocked by 100 μl of ABX-blocking buffer (0.5% BSA, 0.1% Tween, 0.01% Thimerosal in PBS) for 1 hour.
The plates were incubated at room temperature for two hours before the unbound molecules were washed off. […] After washing twice, the bound Streptavidin was detected by HRP substrate (R&D Systems, Cat. No. DY998). The plates were incubated for 30 minutes before 450 stop solution (100 μl/well, BioFX, Cat# BSTP-0100-01) was added to terminate the reaction. The light absorbance at 450 nm was determined by a Spectramax Plus reader.
Each concentration of the mAb was tested in duplicate. The concentration-response relationship was found by curve fitting using Graphpad Prism™ graphic software (non-linear, Sigmoid curve). The maximal inhibition (efficacy) and IC₅₀ (potency) were calculated by the software.

Another assay deals with T2, mouse Angiopoietin-2 (mouse, UniProt O35608 19-496).
T2 construct: Used as conditioned medium of transfectants; also called mAng-2; mouse Ang-2
T2 sequence: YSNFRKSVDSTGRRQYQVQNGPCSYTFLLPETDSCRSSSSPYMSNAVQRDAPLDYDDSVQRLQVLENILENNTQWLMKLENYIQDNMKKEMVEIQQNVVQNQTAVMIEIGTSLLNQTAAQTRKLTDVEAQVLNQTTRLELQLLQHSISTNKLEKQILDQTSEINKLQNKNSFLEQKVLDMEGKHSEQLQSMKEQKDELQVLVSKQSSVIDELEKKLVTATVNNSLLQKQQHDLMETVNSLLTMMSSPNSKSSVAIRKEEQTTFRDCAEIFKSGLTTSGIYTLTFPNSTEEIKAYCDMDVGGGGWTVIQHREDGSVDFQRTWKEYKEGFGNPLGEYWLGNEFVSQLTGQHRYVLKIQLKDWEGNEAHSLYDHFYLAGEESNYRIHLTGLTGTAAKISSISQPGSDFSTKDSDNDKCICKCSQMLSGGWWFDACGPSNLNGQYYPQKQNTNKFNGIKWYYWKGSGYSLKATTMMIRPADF
Nature of the assay: ELISA on plates coated with conditioned medium of HEK293F/mouse Ang-2 transfectants, mAb titrated, detection with anti-human Fc-HRP. On the procedure: The plates were incubated at 4° C. overnight, followed by washing four times using Phosphate Buffer Saline with a Skan Washer 300 station (SKATRON). The wells were blocked by 100 μl of ABX-block buffer (0.5% BSA, 0.1% Tween, 0.01% Thimerosal in PBS) for 1 hour. […] The mAbs and each of their dilutes were tested in duplicate. After washing twice, the bound mAbs were detected by goat anti-human Fc-HPPO-conjugated antibody (Caltag, Code H10507) at 1/1,000 dilution at room temperature for an hour. To set up the detecting chromagenic reaction, 100 μl of TMB substrate (TMB-microwell, BioFX, Cat. No. TMSK-1000-01) was added after washing the wells three times using PBS. The plates were incubated for 30 minutes before 650 stop solution (100 μl/well, BioFX, Cat. No. BSTP-0100-01) was added to terminate the reaction. The light absorbance at […] was determined by a Spectramax Plus reader.

In assay [2] the target is T1, human Angiopoietin-2. The assay is described as follows: Biacore, mAb captured. On the procedure:
The label-free surface plasmon resonance (SPR), or Biacore, was utilized to measure the antibody affinity to the antigen. For this purpose, a high-density goat anti-human antibody surface over a CM5 Biacore chip was prepared using routine amine coupling. All the purified mAbs were diluted to approximately 8 μg/ml in HBS-P running buffer containing 100 μg/ml BSA and 10 mg/mL carboxymethyldextran. Each mAb was captured on a separate surface using a 42-second contact time, and a 5-minute wash for stabilization of the mAb baseline.
Data were fit globally to a 1:1 interaction model to determine the binding kinetics.

Assay [3] concerns the target T1, human Angiopoietin-2. The assay is described as follows: Biacore, mAb immobilized, 8 h dissociation.
For assay [4], the target named is T1, human Angiopoietin-2. The assay is described as follows: high resolution Biacore, 1st experiment; kd held constant (*). On the procedure:
(§1) The mAb was then immobilized on flow cells 1-3 (CM5 Biacore chip) using routine amine coupling, leaving flow cell 4 as the reference flow cell.
(§2) The antibody surfaces were regenerated with a 6-second pulse of 15 mM NaOH after each injection cycle.
(§3) The sample injections alternated with three blank injection cycles. Each surface was regenerated with a 6-second pulse of 15 mM NaOH after each long off-rate injection cycle.

Assay [5] deals with T1, human Angiopoietin-2. Nature of the assay: cell-based or functional assay.
Assay [6] concerns the target T1, human Angiopoietin-2. The assay is described as follows: high resolution Biacore, mAb immobilized, 1st experiment. On the procedure: as §1, §2, §3
The target of assay [7] is T1, human Angiopoietin-2. The assay is described as follows: high resolution Biacore, mAb immobilized, 2nd experiment. The procedure:
as §1, §2, §3

B1: mAb 5.28.1 (antibody, V domains shown)
VH: EVQLVESGGIVVQPGGSLRLSCAASGFTFDDYTMHWVRQTPGKGLEWVSLISWDGGSTYYADSVKGRFTISRDNSKNSLYLQMNSLRTEDTALYYCAKDIDIAVAGTGFDHWGQGTLVTVSS
VL: EIVMTQSPATLSVSPGERATLSCRASQSVTSNLAWYQQKPGQAPRLLIYGALIRATGIPARFSGSGSGTEFTLTISSLQSEDFAVYYCQQYNNWPFTFGPGTKVDIKR
notes: Human hybridoma IgG (XenoMouse); also called x5.28
B1: in the assay with human Angiopoietin-2 [1], the EC50 turned out to be 2.7 µg/mL and the “Efficacy (ratio of bound Ang-2 with mAb 30 µg/ml versus without)” value is 0.389 ratio. In addition, the binding result in the assay with mouse Angiopoietin-2 was “no binding (tested: 100 µg/ml)”. In the assay with human Angiopoietin-2 [2], the equilibrium dissociation constant (Kd) is ≤ 40 pM and the kon came out at 250000 M⁻¹ s⁻¹.

B2: mAb 5.35.1 (antibody, V domains shown)
VH: EVQLVESGGGVVRPGGSLRLSCTTSGFTFDDYGMSWVRQAPGKGLEWVSGINWNGGSTVYADSVKGRFTISRDSAKNSLYLQMNSLRAEDTALYHCARNKQWLWYFDLWGRGTLVTVSS
VL: EIVMTQSPATLSVSPGERATLSCRASQSVSSNLAWYQQKPGQAPRLLIYGASTRATGIPARFSGSGSGTEFTLTISSLQSEDFAVYYCEQYNNWPLTFGGGTKVEIKR
notes: Human hybridoma IgG (XenoMouse); also called x5.35
Consider B2, for which, in the assay with human Angiopoietin-2 [2], the Kd is ≤ 29 pM and the kon stood at 340000 M⁻¹ s⁻¹. In the assay with human Angiopoietin-2 [3], this molecule registered a Kd of 3.31 pM, a koff of 1.87e-06 s⁻¹ and a kon of 564000 M⁻¹ s⁻¹.

B3: mAb 3.19.3 (antibody, V domains shown)
VH: QVQLVESGGGVVQPGRSLRLSCAASGFTFTNYGMHWGRQAPGKGLEWVAVISHDGNNKYYVDSVKGRFTISRDNSKNTLYLQMNSLRAEDTAVYYCAREGIDFWSGLNWFDPWGQGTLVTVSS
VL: EIVLTQSPGTLSLSPGERATLSCRASQSITGSYLAWYQQKPGQAPRLLICGASSWATGIPDRFSGSGSGTDFTLTISRLEPEDFAVYYCQQYSSSPITFGQGTRLEIKR
notes: Human hybridoma IgG (XenoMouse); also called x3.19
In the case of B3, in the assay with human Angiopoietin-2 [1], the EC50 is 0.798 µg/mL and the “Efficacy (ratio of bound Ang-2 with mAb 30 µg/ml versus without)” value came out at 0.395 ratio. The koff with human Angiopoietin-2 [4] was ~1e-06 s⁻¹. In addition, the “EC50, inhibition of Ang-2-induced Tie2 phosphorylation (HEK293F/Tie2, ELISA)” value with human Angiopoietin-2 [5] was found to be 0.006 µg/mL. For the same molecule, in the assay with human Angiopoietin-2 [6], the Kd was found to be 5.3 pM and the kon came to 189000 M⁻¹ s⁻¹. The “EC50 (read off the curve)” value in the assay with mouse Angiopoietin-2 is ~1 µg/mL. In addition, in the assay with human Angiopoietin-2 [2], the Kd is ≤ 111 pM and the kon amounted to 90000 M⁻¹ s⁻¹. Also, in the assay with human Angiopoietin-2 [7], the Kd came to 5.6 pM and the kon worked out at 178000 M⁻¹ s⁻¹.
